Values of other authors in article PMC2846219.
Read-outs that look alike come from different tables or passages of the source.

What was measured:
PCNA (Homo sapiens) [1] = target: PCNA (Homo sapiens) (UniProt P12004)
PCNA (Homo sapiens) [2] = target: PCNA (Homo sapiens) (UniProt P12004); remark: listed apart in the source

Chain of UniProt P12004 (P12004 whole entry): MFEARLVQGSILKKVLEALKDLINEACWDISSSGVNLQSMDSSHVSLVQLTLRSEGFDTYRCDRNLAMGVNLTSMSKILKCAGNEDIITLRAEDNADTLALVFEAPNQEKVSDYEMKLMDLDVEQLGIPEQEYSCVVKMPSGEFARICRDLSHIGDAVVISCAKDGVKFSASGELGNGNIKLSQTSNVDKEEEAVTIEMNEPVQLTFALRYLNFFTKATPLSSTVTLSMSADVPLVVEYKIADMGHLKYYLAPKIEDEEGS

| Substance | Kd (PCNA (Homo sapiens) [1]) | Kd (PCNA (Homo sapiens) [2]) |
| --- | --- | --- |
| DNA polymerase eta PIP peptide PIP peptide (from UniProt Q9Y253) | 400 nM |  |
| DNA polymerase iota PIP peptide PIP peptide (from UniProt Q9UNA4) |  | 390 nM |
